Legend:
[1] = system: primary mouse hepatocytes from PCSK9 knockout mice; test: LDL receptor protein in PCSK9 knockout mouse hepatocytes; assay type: cell-based; settings: 50 ng/mL, 24 hours
Method: Animal ethics approval was received for the mouse protocols to follow. Primary mouse hepatocytes from PCSK9 knockout mice (C57Bl/6 background) or their wildtype littermates were isolated by perfusing the liver via the hepatic portal vein with a 5 mM EGTA in Leffert's Buffer (10 mM Hepes; 3 mM KCl, 0.13 M NaCl, 1 mM NaH2PO4, 10 mM D-glucose) followed by a 0.3 mg/ml collagenase in 0.0279% CaCl2. Cells were then filtered through a 70 uM nylon strainer and centrifuged at 760 rpm for 5 min. The cells were then passed through a CHRM gradient (Invitrogen, NC). Viability of cells ranged from 80 to 95%. […] Mouse LDL receptor and PCSK9 protein in cell lysates were measured via immunoblotting, as described above, using the following primary antibodies: mouse LDL receptor (abcam, MA), mouse PCSK9 (abcam, MA) and mouse GAPDH (Cell Signaling, MA). […]
To then more directly quantify the role of PCSK9 in the resistin mediated reduction in hepatocyte LDL receptor levels, hepatocytes isolated and cultured from wild-type mice were treated with resistin, and compared to resistin-treated hepatocytes from PCSK9 knockout mice.

[2] = system: primary human hepatocytes; test: LDL receptor protein in primary human hepatocytes; assay type: cell-based; settings: 50 ng/mL, 24 hours
Method: Cryopreserved plateable human hepatocytes, metabolism qualified from multiple normal human donors, were obtained from CellzDirect (Invitrogen, NC). The cells were seeded at 1×10^6 cells/well in a 6-well collagen coated plate according to the manufacturer's instructions (CellzDirect, Invitrogen, NC). The cells were incubated at 37° C. with 5% CO2 for 4 hours to allow the cells to adhere. The plating media was replaced and the cells incubated for 16 hours prior to human resistin 50 ng/mL treatment for 24 hours.
To determine if the above findings in immortalized HepG2 cells are relevant to humans, primary human hepatocytes […] (Invitrogen) were treated with human resistin at the optimum 50 ng/mL dose for 24 hours. […] While the magnitude of the inhibitory effect of human resistin on LDL receptor protein expression was not as large as with HepG2 cells, this was expected as primary hepatocytes are not as metabolically active as cultured hepatoma HepG2 hepatocytes.

HepG2 cells [3] = test: insulin signaling pathway protein expression, Western blot; assay type: cell-based, human; settings: 50 ng/mL, 24 hours
Description: (§1) Horseradish peroxidase-conjugated antibodies (BioRad, Hercules, Calif.) were used as secondary antibodies.
Another important regulator of hepatocyte apoB/VLDL assembly and stability is the intracellular insulin signaling pathway.

HepG2 cells [4] = test: apoB and apolipoprotein expression and secretion, immunoprecipitation and Western blot; assay type: cell-based, human
Method: During experiments in which HepG2 cells were treated with human recombinant resistin (Calbiochem, UK) the media was changed to 1% FBS-containing DMEM. […] In separate experiments, cells were treated with the fatty acid, oleate (100 μM) (Sigma, ON) for 24 hours, with or without human resistin (50 ng/mL) for 24 hours. In other experiments, cells were treated with the 10 μM lactacystin (Cayman Chemical, Ann Arbor, Mich.) for 24 hours to assess intracellular proteosome-dependent apoB protein degradation.
as §1
All of the experiments to follow were performed three times and representative results are shown. […] Immunoprecipitation on cell lysates and media, followed by Western blots to detect the cellular expression and secretion of human apoB protein were then performed. The constitutively expressed cellular proteins, beta-actin and albumin were used as internal immunoblot controls to confirm equal protein loading in the apoB immunoblots of cell lysates and media, respectively. […] Treatment with 25 ng/mL resistin further stimulated apoB secretion by approximately 250% compared with untreated cells (FIG. 1A).

HepG2 cells [5] = test: cell viability, tryphan blue staining; assay type: cell-based, human; settings: 50 ng/mL or 100 ng/mL, 24 or 48 hours
Method: Cell viability was determined with 0.4% tryphan blue (Sigma-Aldrich, ON) staining and calculated using the following formula: % Cell Viability=(number of unstained (living) cells/Total number of cells)×100.
The next question was whether this amount of human resistin is toxic to hepatocytes. Tryphan blue staining of HepG2 cells upon 50 ng/mL of resistin treatment to determine cell viability was performed.

HepG2 cells [6] = test: FPLC lipoprotein profile of HepG2 cell media; assay type: cell-based, human; settings: 50 ng/mL, 24 hour
Method: Lipids from HepG2 cell extracts were quantified by gas chromatography (GC) as described in Sahoo et al. (J. Lipid Res. 45:1122-1131). Briefly, cell extracts were incubated with phospholipase C (Sigma, ON) to remove polar head groups, then extracted in the presence of internal standard by the method of Folch et al. (J Biol Chem 226:497-509). Extracted lipids were passed through a sodium sulfate column to remove aqueous contaminants, and derivatized with Sylon BFT (Supelco, ON) to cap reactive hydroxyl and carboxyl groups. Derivatized lipids were dissolved in hexane and injected onto a Zebron ZB-5 column (Phenomenex, Torrance, Calif.) in an Agilent 6890 GC instrument. Lipoprotein Profiles. HepG2 media from 6-10 cm plates was collected and concentrated using an Amicon Centriprep concentrator 50 K and lipoprotein classes separated by fast protein liquid chromatography (FPLC) on a Superose 6 10/30 gel filtration column (Amersham, UK) followed by inline post-column reaction with either Infinity Triglyceride or Infinity Cholesterol reagent (Thermo Scientific, West Palm Beach, Fla.) and measurement of absorbance @ 500 nm.
The characteristics of the apoB-containing lipoprotein particles produced as a result of treatment of human hepatocytes with human resistin was determined. […]

B1: human resistin: recombinant lyophilized purified human resistin (Calbiochem); cysteine-rich cytokine, single 12 kDa band (protein)
chain: KTLCSMEEAINERIQEVAGSLIFRAISSIGLECQSVTSRGDLATCPRGFAVTGCTCGSACGSWDVRAETTCHCQCAGMDWTGARCCRVQP
[1]
  decline in LDL receptor expression compared to untreated hepatocytes: 15%
[2]
  LDL receptor protein versus untreated control cells: significantly reduced
HepG2 cells [3]
  decrease in expression of IRS-2, ERK, phosphorylated ERK, Akt and serine and threonine phosphorylated Akt: 20-30%
HepG2 cells [4]; 10 ng/mL resistin, 24 hours
  increase of hepatic apoB cellular protein expression and secretion versus control, untreated HepG2 cells: ~100%
HepG2 cells [4]; 25 ng/mL resistin, 24 hours
  stimulation of apoB secretion compared with untreated cells: approximately 250%
HepG2 cells [4]; 50 ng/mL resistin added to 100 μM oleate, 24 hours
  effect on the stimulatory effect of oleate on hepatic cellular apoB expression and secretion: doubled
HepG2 cells [4]; 50 ng/mL resistin added to lactacystin 10 μM, 24 hours
  apoB expression or secretion on addition to lactacystin: did not further increase
HepG2 cells [4]; 50 ng/mL resistin, 24 hours
  increase in cellular apoB protein expression versus untreated cells: approximately 3500%
  increase in secreted apoB versus untreated cells: 1000%
HepG2 cells [4]; 50 ng/mL resistin, after 48 hours, no restimulation
  apoB secretion above untreated HepG2 cells: 100%
HepG2 cells [4]; 50 ng/mL resistin, time course
  earliest time of increase in apoB protein secretion into HepG2 cell media: 4 h
  time of maximal cumulative effect on apoB protein expression in the media: 24 h
HepG2 cells [4]; 50 ng/mL, 24 hour
  increase in secretion of apoB protein by HepG2 cells: approximately 8 fold
HepG2 cells [4]; 50 ng/mL, versus untreated
  apoCI or CIII protein expression: no difference
  expression of secreted apoE: increase
HepG2 cells [4]; 100 ng/mL resistin, 24 hours
  cellular apoB expression and secretion versus that produced by 50 ng/mL resistin: reduced cellular apoB expression markedly
HepG2 cells [5]
  hepatocyte viability: no marked reduction
HepG2 cells [6]
  increase in secreted VLDL triglycerides and cholesterol relative to control untreated cells: 8-9 fold
  lipid contents of the secreted LDL or HDL fractions: virtually no change

— US20130252987A1, “METHOD OF REGULATING PLASMA LIPOPROTEINS” (MCMASTER UNIVERSITY, priority 2010, published 2013)
